The results in this text go back to US20140341881A1 (DERMADIS, published 2014).

B2: human kallikrein 14 (hK14) (enzyme, UniProt Q9P0G3 25-251, looked up)
chain: IIGGHTCTRSSQPWQAALLAGPRRRFLCGGALLSGQWVITAAHCGRPILQVALGKHNLRRWEATQQVLRVVRQVTHPNYNSRTHDNDLMLLQLQQPARIGRAVRPIEVTQACASPGTSCRVSGWGTISSPIARYPASLQCVNINISPDEVCQKAYPRTITPGMVCAGVPQGGKDSCQGDSGGPLVCRGQLQGLVSWGMERCALPGYPGVYTNLCKYRSWIEETMRDK
notes: range counted on GenBank AAK48524 (printed), which may differ from the UniProt numbering; also called recombinant hK14

The target of assay [1] is B2. Description: residual hK14 activity against [I0]/[E0]. An outline of the steps: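 hK14 preincubated 4 hours at 37° C with varying inhibitor concentrations in 50 mM Tris pH 7.5, 150 mM NaCl, 0.05% Triton X-100, 0.01% BSA; residual activity read with Boc-Val-Pro-Arg-AMC (ex 340/em 485 nm). SI taken as abscissa intercept of vi/v₀ versus [I₀]/[E₀] linear regression.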
Assay [2] concerns the target B2. Description: progress curve.
The next assay has as its target human kallikrein 2 (hK2) (human, UniProt P20151 25-261). Kind of assay: cell-based or functional assay.
In the next assay the target is T1, human kallikrein 8 (hK8) (human, UniProt O60259 33-260).
T1 sequence (looked up): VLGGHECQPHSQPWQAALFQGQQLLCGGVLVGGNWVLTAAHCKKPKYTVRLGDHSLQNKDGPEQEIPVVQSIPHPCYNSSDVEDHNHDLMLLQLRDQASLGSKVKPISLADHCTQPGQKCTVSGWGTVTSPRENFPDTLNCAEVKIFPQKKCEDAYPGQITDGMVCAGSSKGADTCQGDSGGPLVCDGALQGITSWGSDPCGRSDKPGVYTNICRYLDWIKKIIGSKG
Kind of assay: cell-based or functional assay.

Another assay addresses human kallikrein 4 (hK4) (human, UniProt Q9Y5K2 31-254, limits assumed). Description: cell-based or functional assay.
In another assay the target is thrombin. Kind of assay: cell-based or functional assay.
The target in assay [3] is human chymotrypsin (Chtr) (human, UniProt P17538 19-263). Kind of assay: cell-based or functional assay.
Sequence of human chymotrypsin (Chtr) (P17538 19-263): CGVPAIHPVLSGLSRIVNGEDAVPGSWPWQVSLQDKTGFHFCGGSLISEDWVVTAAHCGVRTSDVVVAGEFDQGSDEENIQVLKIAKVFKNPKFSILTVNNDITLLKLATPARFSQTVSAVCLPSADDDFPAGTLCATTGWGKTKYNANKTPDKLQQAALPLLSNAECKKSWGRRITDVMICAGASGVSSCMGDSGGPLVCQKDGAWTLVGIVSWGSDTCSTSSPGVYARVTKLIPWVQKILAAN
The target in assay [4] is prostate specific antigen (PSA, hK3) (human, UniProt P07288 25-261). Description: cell-based or functional assay.
The next assay concerns the target human kallikrein 6 (hK6) (human, UniProt Q92876 22-244). Description: cell-based or functional assay.
For assay [5], the target named is B2. Description: cell-based or functional assay.
The target of assay [6] is human plasma kallikrein (PK) (human, UniProt P03952 20-638). Kind of assay: cell-based or functional assay.
Sequence of human plasma kallikrein (PK) (P03952 20-638 limits assumed): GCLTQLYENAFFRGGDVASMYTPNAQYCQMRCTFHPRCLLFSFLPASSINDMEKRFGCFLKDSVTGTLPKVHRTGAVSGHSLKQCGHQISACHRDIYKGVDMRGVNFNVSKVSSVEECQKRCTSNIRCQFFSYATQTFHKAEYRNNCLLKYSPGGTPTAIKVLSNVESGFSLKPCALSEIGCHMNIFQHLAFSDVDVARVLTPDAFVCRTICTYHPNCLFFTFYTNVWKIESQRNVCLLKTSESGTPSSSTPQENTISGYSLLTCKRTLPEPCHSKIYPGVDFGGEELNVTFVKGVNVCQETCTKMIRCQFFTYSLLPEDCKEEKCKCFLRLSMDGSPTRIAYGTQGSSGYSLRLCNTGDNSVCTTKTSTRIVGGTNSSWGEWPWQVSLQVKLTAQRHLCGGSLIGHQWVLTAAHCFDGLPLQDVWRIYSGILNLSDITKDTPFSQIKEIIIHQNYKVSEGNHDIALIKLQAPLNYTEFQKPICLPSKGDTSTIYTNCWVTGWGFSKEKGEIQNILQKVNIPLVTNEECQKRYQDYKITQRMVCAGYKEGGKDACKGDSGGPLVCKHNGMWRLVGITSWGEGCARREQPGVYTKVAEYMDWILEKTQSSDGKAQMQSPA
For a further assay, the target named is T2, human kallikrein 5 (hK5) (human, UniProt Q9Y337 67-293, limits assumed).
T2 sequence (looked up): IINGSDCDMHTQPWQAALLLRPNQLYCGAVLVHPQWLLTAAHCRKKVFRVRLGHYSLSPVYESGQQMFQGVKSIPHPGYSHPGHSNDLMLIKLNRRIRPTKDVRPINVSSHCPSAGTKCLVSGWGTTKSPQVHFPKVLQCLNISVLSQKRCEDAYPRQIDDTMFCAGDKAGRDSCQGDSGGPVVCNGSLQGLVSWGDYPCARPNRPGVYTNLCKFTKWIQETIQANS
Description: cell-based or functional assay.

Assay [7] concerns the target T3, human neutrophil elastase (HNE) (human, UniProt P08246 30-247, limits assumed).
T3 sequence (looked up): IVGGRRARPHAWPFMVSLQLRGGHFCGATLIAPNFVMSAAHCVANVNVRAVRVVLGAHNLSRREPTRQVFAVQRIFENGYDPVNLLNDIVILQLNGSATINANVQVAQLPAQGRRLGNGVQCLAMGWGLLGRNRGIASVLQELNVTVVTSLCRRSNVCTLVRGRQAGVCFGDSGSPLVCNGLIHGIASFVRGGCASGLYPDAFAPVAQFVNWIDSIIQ
Kind of assay: cell-based or functional assay.

Assay [8] concerns the target T4, human kallikrein 13 (hK13) (human, UniProt Q9UKR3 26-277, limits assumed).
T4 sequence (looked up): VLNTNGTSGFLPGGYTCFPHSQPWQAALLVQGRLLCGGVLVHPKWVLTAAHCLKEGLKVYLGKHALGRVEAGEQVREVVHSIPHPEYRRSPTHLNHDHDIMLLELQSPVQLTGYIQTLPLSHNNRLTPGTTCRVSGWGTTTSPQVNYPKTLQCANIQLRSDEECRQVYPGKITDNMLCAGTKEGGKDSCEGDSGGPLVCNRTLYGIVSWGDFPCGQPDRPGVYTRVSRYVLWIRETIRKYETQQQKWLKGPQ
Kind of assay: cell-based or functional assay.

The target in assay [9] is B2. Kind of assay: progress curve. The source holds these as a separate data set.
Assay [10] deals with B2. Description: residual hK14 activity after 4 h at 37 C against [I0]/[E0]. The protocol: SI values of rAAT, rACT, and their variants were determined with hK14 incubating the protease with varying concentrations of inhibitor. After an incubation of 4 hours at 37° C. in reaction buffer (50 mM Tris, pH 7.5, 150 mM NaCl, 0.05% Triton X-100, 0.01% BSA), the residual activity was detected by the addition of fluorescent substrate (Boc-Val-Pro-Arg-AMC). Fluorescence was measured with excitation at 340 nm (±15) and emission at 485 nm (±10) in black 96 well plates using a microplate fluorescence reader FLₓ800 (Bio-Tek Instruments, Inc.). The SI value corresponds to the abscissa intercept of the linear regression analysis of fractional velocity (velocity of inhibited enzyme reaction (vi)/velocity of uninhibited enzyme reaction (v₀)) vs. the molar ratio of the inhibitor to enzyme ([I₀]/[E₀]).

The target of assay [11] is B2. Kind of assay: progress curve, pseudo-first order, 37 C. The protocol: (§1) The association rate constants for interactions of hK14, with different inhibitors were determined under pseudo-first order conditions using the progress curve method (Morrison and Walsh, 1988). Under these conditions, a fixed amount of enzyme (2 nM) was mixed with different concentrations of inhibitor (0-80 nM) and an excess of substrate (20 μM). Reactions were performed in reaction buffer (50 mM Tris pH 7.5, 150 mM NaCl, 0.05% Triton X-100, 0.01% BSA) at 37° C. for 45 min and the rate of product formation was measured using a FLₓ800 fluorescence 96-well microplate reader (Biotek, USA) Inhibition is considered to be irreversible over the course of reaction and the progression of enzyme activity is expressed as product formation (P), beginning at a rate (vz) and is inhibited over time (t) at a first-order rate (kobs), where the rate constant is only dependent on the inhibitor concentration.
(§2) Kinetic analysis of the inhibition of human hK14 by recombinant serpins were performed under pseudo-first-order conditions using an excess of inhibitor at various molar ratios of hK14. The time-dependent inactivation of the enzyme through reaction with serpin was monitored continuously, following the decrease in the rate of substrate turnover. Progress curves for reactions with different serpin concentrations were fitted to equation 1 to calculate values describing the rate constant (kobs). The association rate constants (kₐ) were determined from the slope of kobs values versus the concentration of the hK14 inhibitors.

In a further assay the target is T5, AATG1g (human, UniProt P01009 25-418).
T5 construct: mature
T5 sequence (P01009 other isoform, or with tags, fused parts or gaps): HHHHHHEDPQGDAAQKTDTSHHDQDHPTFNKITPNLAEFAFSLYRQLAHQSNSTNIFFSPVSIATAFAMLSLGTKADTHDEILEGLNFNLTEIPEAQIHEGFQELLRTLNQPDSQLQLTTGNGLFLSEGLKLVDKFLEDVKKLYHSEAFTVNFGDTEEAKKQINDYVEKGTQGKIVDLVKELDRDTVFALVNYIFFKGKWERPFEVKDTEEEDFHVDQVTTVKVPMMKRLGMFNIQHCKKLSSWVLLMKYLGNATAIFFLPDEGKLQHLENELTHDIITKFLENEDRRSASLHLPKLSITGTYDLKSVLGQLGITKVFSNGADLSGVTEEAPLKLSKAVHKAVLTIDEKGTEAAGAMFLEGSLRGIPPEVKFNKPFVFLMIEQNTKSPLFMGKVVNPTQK
Kind of assay: progress curve; * [I0]/[E0] < 5 * SI. Here is the method:
as §1

In the next assay the target is T6, AATE5 (human, UniProt P01009 25-418).
T6 construct: mature
T6 sequence (P01009 other isoform, or with tags, fused parts or gaps): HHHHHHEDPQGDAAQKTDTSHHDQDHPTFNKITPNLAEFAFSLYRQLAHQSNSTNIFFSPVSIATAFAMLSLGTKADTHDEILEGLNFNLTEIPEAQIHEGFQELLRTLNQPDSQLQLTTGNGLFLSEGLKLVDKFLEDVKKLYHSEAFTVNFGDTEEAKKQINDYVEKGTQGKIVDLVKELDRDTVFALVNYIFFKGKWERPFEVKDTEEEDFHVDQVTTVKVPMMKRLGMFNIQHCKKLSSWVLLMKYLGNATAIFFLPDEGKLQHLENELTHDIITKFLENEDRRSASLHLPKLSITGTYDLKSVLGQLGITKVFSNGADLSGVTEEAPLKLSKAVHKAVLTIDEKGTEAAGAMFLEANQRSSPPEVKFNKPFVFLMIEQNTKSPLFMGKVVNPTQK
Kind of assay: progress curve; * [I0]/[E0] < 5 * SI. Here is the method:
as §1

The target in the next assay is T7, AATF3 (human, UniProt P01009 25-418).
T7 construct: mature
T7 sequence (P01009 other isoform, or with tags, fused parts or gaps): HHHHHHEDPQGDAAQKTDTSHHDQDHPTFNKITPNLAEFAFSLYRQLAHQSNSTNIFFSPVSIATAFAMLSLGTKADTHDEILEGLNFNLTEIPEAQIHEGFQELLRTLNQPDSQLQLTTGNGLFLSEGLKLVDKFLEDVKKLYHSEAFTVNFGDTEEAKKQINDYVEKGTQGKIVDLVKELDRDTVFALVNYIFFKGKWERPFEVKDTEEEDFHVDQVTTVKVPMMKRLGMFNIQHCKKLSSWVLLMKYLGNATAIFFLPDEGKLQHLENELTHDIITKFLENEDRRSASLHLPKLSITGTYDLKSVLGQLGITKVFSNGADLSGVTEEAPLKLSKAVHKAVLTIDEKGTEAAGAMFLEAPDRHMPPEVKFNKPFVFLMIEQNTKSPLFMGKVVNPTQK
Kind of assay: progress curve; * [I0]/[E0] < 5 * SI. The protocol:
as §1

The target in a further assay is T8, AATG1 (human, UniProt P01009 25-418).
T8 construct: mature
T8 sequence (P01009 other isoform, or with tags, fused parts or gaps): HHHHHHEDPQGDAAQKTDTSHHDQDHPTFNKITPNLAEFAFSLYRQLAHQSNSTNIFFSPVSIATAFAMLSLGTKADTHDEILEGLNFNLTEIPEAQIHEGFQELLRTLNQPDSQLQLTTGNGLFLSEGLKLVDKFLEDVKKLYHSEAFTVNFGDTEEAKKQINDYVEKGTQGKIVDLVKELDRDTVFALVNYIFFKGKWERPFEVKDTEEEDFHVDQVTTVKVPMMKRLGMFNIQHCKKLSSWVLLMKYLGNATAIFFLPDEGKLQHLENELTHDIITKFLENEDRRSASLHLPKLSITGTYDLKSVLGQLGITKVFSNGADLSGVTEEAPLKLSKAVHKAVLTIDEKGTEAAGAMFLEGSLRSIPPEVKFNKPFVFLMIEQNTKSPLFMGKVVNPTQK
Kind of assay: progress curve; * [I0]/[E0] < 5 * SI. Here is the method:
as §1

The target of a further assay is T9, AATE8 (human, UniProt P01009 25-418).
T9 construct: mature; also called rAATE8
T9 sequence (P01009 other isoform, or with tags, fused parts or gaps): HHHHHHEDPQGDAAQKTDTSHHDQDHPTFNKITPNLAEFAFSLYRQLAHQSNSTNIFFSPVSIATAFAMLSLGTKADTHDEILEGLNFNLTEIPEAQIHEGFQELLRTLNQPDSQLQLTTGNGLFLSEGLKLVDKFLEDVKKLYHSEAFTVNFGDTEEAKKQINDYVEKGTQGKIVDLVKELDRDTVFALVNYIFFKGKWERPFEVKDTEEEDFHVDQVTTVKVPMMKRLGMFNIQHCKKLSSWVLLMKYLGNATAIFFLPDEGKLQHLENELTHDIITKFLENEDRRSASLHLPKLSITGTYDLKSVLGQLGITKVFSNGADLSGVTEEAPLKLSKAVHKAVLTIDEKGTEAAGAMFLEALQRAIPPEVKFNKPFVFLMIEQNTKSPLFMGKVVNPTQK
Description: progress curve; * [I0]/[E0] < 5 * SI. Here is the method:
as §1

The next assay concerns the target T10, AATC11 (human, UniProt P01009 25-418).
T10 construct: mature
Description: progress curve; * [I0]/[E0] < 5 * SI. Here is the method: as §1

In assay [12] the target is T11, AATG9 (human, UniProt P01009 25-418).
T11 construct: mature; also called rAATG9
T11 sequence (P01009 other isoform, or with tags, fused parts or gaps): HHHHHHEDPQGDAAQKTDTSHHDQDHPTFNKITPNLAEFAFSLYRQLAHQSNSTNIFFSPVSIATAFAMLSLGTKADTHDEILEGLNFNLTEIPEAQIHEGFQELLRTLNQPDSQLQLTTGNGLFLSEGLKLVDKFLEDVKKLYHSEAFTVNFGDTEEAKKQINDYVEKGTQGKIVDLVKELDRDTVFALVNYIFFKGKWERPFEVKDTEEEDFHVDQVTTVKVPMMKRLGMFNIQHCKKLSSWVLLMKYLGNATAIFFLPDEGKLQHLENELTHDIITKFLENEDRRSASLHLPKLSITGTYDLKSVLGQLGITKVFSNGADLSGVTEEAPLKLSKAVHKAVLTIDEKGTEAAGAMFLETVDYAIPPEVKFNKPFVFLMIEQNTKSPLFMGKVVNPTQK
Kind of assay: progress curve. Here is the method:
as §1

Assay [13] has as its target T12, AATWT (recombinant wild type alpha-1-antitrypsin) (human, UniProt P01009 25-418).
T12 construct: mature; also called rAATwt; rAAT
Description: progress curve. Here is the method: as §1

For assay [14], the target named is T11, AATG9. Description: progress curve, pseudo-first order, 37 C. Here is the method: as §1, §2
For assay [15], the target named is T12, AATWT (recombinant wild type …). Kind of assay: progress curve, pseudo-first order, 37 C. Here is the method: as §1, §2

T12 sequence (P01009 other isoform, or with tags, fused parts or gaps): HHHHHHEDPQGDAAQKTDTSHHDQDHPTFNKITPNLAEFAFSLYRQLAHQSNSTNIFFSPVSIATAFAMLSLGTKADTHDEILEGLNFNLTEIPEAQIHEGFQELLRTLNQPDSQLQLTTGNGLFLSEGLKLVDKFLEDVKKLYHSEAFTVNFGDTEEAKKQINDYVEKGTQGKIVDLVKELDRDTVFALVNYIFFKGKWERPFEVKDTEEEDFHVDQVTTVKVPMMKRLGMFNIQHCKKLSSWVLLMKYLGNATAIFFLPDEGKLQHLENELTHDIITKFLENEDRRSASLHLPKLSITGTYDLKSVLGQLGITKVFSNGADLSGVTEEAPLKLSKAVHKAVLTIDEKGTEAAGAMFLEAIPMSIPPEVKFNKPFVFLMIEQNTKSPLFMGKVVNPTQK
T10 sequence (P01009 other isoform, or with tags, fused parts or gaps): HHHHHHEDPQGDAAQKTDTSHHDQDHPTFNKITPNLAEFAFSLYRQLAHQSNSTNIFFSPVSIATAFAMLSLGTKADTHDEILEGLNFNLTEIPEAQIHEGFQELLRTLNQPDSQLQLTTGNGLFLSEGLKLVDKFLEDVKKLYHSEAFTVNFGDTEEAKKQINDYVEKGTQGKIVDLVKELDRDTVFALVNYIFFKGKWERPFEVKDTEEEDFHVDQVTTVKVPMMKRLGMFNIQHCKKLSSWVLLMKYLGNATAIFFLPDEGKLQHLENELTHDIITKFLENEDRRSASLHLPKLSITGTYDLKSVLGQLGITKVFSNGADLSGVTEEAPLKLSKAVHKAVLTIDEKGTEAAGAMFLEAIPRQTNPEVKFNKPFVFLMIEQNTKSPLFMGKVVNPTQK
Sequence of human kallikrein 4 (hK4) (Q9Y5K2 31-254 limits assumed): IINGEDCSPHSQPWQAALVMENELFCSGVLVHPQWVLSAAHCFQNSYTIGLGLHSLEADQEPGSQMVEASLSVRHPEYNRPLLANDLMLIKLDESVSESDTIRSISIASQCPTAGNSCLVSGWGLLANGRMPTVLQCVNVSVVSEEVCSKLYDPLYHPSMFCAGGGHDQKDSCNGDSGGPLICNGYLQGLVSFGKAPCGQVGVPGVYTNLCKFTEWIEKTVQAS

B1: ACTG9 (other)
chain: MRGSHHHHHHSRHPNSPLDEENLTQENQDRGTHVDLGLASANVDFAFSLYKQLVLKAPDKNVIFSPLSISTALAFLSLGAHNTTLTEILKGLKFNLTETSEAEIHQSFQHLLRTLNQSSDELQLSMGNAMFVKEQLSLLDRFTEDAKRLYGSEAFATDFQDSAAAKKLINDYVKNGTRGKITDLIKDLDSQTMMVLVNYIFFKAKWEMPFDPQDTHQSRFYLSKKKWVMVPMMSLHHLTIPYFRDEELSCTVVELKYTGNASALFILPDQDKMEEVEAMLLPETLKRWRDSLEFREIGELYLPKFSISRDYNLNDILLQLGIEEAFTSKADLSGITGARNLAVSQVVHKAVLDVFEEGTEASAATAVKTVDYAALVETRTIVRFNRPFLMIIVPTDTQNIFFMSKVTNPKQA
notes: also called rACTG9
For the molecule B1, the “SI (stoichiometry of inhibition)” value in assay [1] and in [10] was 1.5 in each case. Also, the association rate constant (kon) in assay [2] was 75000 M⁻¹ s⁻¹; in [9], 74000 M⁻¹ s⁻¹; in assay [11], 74000 M⁻¹ s⁻¹. The Percentage inhibition was found to be 0% with human kallikrein 2 (hK2); 0% with human kallikrein 8 (hK8); 0% with human kallikrein 4 (hK4); 0% with thrombin; 100% in [3]; 0% in [4]. Further, the Percentage inhibition in the assay with human kallikrein 6 (hK6) came to 0%; in assay [5], 100%; in assay [6] it was 0%; in the assay with human kallikrein 5 (hK5), 0%; in [7] it was 0%; in assay [8], 0%.

Consider B2, for which the kon with AATG1g came to 257000 M⁻¹ s⁻¹; in the assay with AATE5, 28000 M⁻¹ s⁻¹; with AATF3, 13000 M⁻¹ s⁻¹; in the assay with AATG1 it was 168000 M⁻¹ s⁻¹; with AATE8, 242000 M⁻¹ s⁻¹; with AATC11, 63000 M⁻¹ s⁻¹. Moreover, the on-rate constant (kon) with AATG9 [12] came to 217000 M⁻¹ s⁻¹; in assay [13], 263000 M⁻¹ s⁻¹; with AATG9 [14], 217000 M⁻¹ s⁻¹; in assay [15] it was 263000 M⁻¹ s⁻¹.
